In PMC11891782:

Key:
Assay in all cases: ELISA; dose-response: 1 μg component adsorbed; rLIC_13355 serially diluted 1:1 from 1 μg, 1 h at 37 °C; anti-His mAb detection; KD by non-linear regression, one site specific binding
[1] = target: Native plasminogen, purified
[2] = target: Laminin-1 from the basement membrane of Engelbreth-Holm-Swarm mouse sarcoma (mouse) (UniProt P19137)
Plasma fibronectin = target: Plasma fibronectin

Substance	Kd [1]	Kd [2]	Kd (Plasma fibronectin)
rLIC_13355, recombinant putative lipoprotein encoded by the gene LIC_13355 of Leptospira interrogans (natural protein)	11.8 nM	18.5 nM	–
rLIC_13355, recombinant putative lipoprotein encoded by the gene LIC_13355 of Leptospira interrogans (natural protein; other documents disagree on this pair)	–	–	3490 nM
